Data published in the supplement of paper PMC10724198.
± gives the standard deviation of the averaged measurements.

The sequences below were run on Saccharomyces cerevisiae (assay: protein stability index of tFT-peptide fusion (C-terminal peptide) (PSI (0-1 scale)); higher = more stable (slower turnover)). Details: genetic background: doa10 deletion; temperature: 30 C.
Protocol: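 MPS profiling in S. cerevisiae of the tFT-X12 degron library: putative degron peptides plus stable controls, 12 aa, fused to the C-terminus of a sfGFP-mCherry timer. Cells are FACS-sorted into 8 mCherry/sfGFP bins and deep-sequenced. PSI runs from 0 (unstable) to 1 (stable). Backgrounds are wild type, das1Δ and doa10Δ at 30 °C, and wild type, das1Δ, cdc34-1 and cdc53-1 at 37 °C; 2-3 technical replicates each.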
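Note: PSI is a weighted mean of sequencing reads over stability bins, variants kept only with over 10 reads, mCherry proximal and sfGFP distal, peptide attached via GGGS linker.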

First: PSPVRSSYASTL
Second: PSVRCVVACFIN
The protein stability index of the first is higher: 0.6532 ± 0.0047 for the first, 0.137 ± 0.028 for the second.

Going from PVGRSVFFVWFL to PVKGTMIKAKNT, the protein stability index falls from 0.3522 ± 0.0035 to 0.184 ± 0.017.

First: PVLSLPPLSSPP
Second: PVLYSFSLWIHL
The protein stability index of the first is higher: 0.691 ± 0.034 for the first, 0.2273 ± 0.00038 for the second.

First: PVWLFLVRAIKG
Second: PWLLHTPLSLVF
The protein stability index of the first is lower: 0.262 ± 0.0072 for the first, 0.3182 ± 0.00076 for the second.

QCLSYFFPVPVA and QGRRKEKAVTLN are within error of each other in protein stability index: 0.147 ± 0.014 for the first, 0.175 ± 0.035 for the second.

Compared with QKGLFYCVILYC, RDGAHFLLILVC is lower in protein stability index: 0.148 ± 0.017 for the first, 0.088 ± 0.025 for the second.

Going from RFFFSSFPLLIS to RFLVVVRFYWRC, the protein stability index falls from 0.207 ± 0.0091 to 0.168 ± 0.015.

Going from RGFIYCSFVVRL to RGLLLKILIASG, the protein stability index falls from 0.301 ± 0.016 to 0.188 ± 0.012.

Compared with RGVGSGGLEGIG, RGVPPPPWTPPP is higher in protein stability index: 0.51 ± 0.004 for the first, 0.653 ± 0.012 for the second.

Compared with RIWRLLIIIIKK, RKRKKISEIIAI is higher in protein stability index: 0.232 ± 0.023 for the first, 0.519 ± 0.037 for the second.

Going from RLPFPVVLFLLF to RLVMAVRVAAGG, the protein stability index rises from 0.3 ± 0.008 to 0.327 ± 0.011.

Compared with RMLSLFFPLRTL, RNWVVDGWRRFP is lower in protein stability index: 0.196 ± 0.011 for the first, 0.17 ± 0.0075 for the second.

RPCLSALRFRFF and RPHPLHIPRRLA are within error of each other in protein stability index: 0.141 ± 0.023 for the first, 0.146 ± 0.011 for the second.

First: RQINEKKKLYMI
Second: RRGLIFFLCCPA
The protein stability index of the first is lower: 0.1 ± 0.013 for the first, 0.31 ± 0.0072 for the second.

First: RRLYERNKNNKQ
Second: RRRRGGQSPALR
The protein stability index of the first is lower: 0.311 ± 0.019 for the first, 0.735 ± 0.022 for the second.

Compared with RRTTIFDTKEPP, RRVFPLIIVLLF is lower in protein stability index: 0.532 ± 0.028 for the first, 0.174 ± 0.0077 for the second.

Going from RSCKSIRGIFVC to RSFPCITVFIRA, the protein stability index rises from 0.2 ± 0.0066 to 0.325 ± 0.03.

RSKWEKLDKIVS and RVCVFVLFGLCF are within error of each other in protein stability index: 0.314 ± 0.022 for the first, 0.309 ± 0.0047 for the second.

Going from RWGLCFVHVTMF to RWRLWVGWWVVG, the protein stability index falls from 0.115 ± 0.01 to 0.1043 ± 0.00095.

Compared with RYRVRIVVFGLV, SCFCFRVLLCSF is higher in protein stability index: 0.075 ± 0.02 for the first, 0.325 ± 0.021 for the second.

First: SCLFMLFPLVSV
Second: SCLLVVVSTSGN
The protein stability index of the first is higher: 0.412 ± 0.0097 for the first, 0.374 ± 0.015 for the second.

First: SFFVCVRVFGCC
Second: SFFWAMSLLCFV
The protein stability index of the first is lower: 0.2075 ± 0.0016 for the first, 0.402 ± 0.022 for the second.

Going from SFGLICFLILCG to SFIVGYRWNNRN, the protein stability index rises from 0.173 ± 0.023 to 0.337 ± 0.033.

SFVVVFTFFFGC and SGFLRFRGLVCY are within error of each other in protein stability index: 0.221 ± 0.011 for the first, 0.233 ± 0.0028 for the second.

Compared with SGFWVSVDVFFV, SGLPLVILFLCL is higher in protein stability index: 0.122 ± 0.012 for the first, 0.441 ± 0.026 for the second.

First: SGRATSSRTSEP
Second: SGWGCRMVVCAG
The protein stability index of the first is higher: 0.662 ± 0.03 for the first, 0.152 ± 0.0088 for the second.

Compared with SHPAPPSPPPSP, SILFSYFCFFLL is lower in protein stability index: 0.363 ± 0.0086 for the first, 0.274 ± 0.0065 for the second.

SLCPFLCILCFG and SLCVVIFFSSIT are within error of each other in protein stability index: 0.245 ± 0.0064 for the first, 0.2524 ± 0.0025 for the second.

First: SLPVSPLVRLLA
Second: SLRICACMTVSW
The protein stability index of the first is lower: 0.127 ± 0.015 for the first, 0.366 ± 0.0045 for the second.

SLSALPRPPRLL and SPPHSPSALPPP are within error of each other in protein stability index: 0.698 ± 0.027 for the first, 0.685 ± 0.022 for the second.

Going from SPWSIHLILLQV to SQCVVYLSVRFS, the protein stability index rises from 0.1894 ± 0.00096 to 0.326 ± 0.014.

Compared with SQKKKIKKYKET, SREQANTVYRLI is higher in protein stability index: 0.172 ± 0.0036 for the first, 0.254 ± 0.0066 for the second.

Going from SRFFSCCVFPSF to SRKRIVALMLSG, the protein stability index falls from 0.6764 ± 0.0041 to 0.153 ± 0.013.

Going from SRNSSRYLLLVS to SRVGAGVVRGVG, the protein stability index rises from 0.211 ± 0.032 to 0.512 ± 0.011.

SRVHHLWAILVP and SSGAVGLVIVVC are within error of each other in protein stability index: 0.18 ± 0.0099 for the first, 0.155 ± 0.018 for the second.

Going from SSGRLRFISRIH to SSVFLGWLIVCY, the protein stability index falls from 0.316 ± 0.019 to 0.154 ± 0.0099.

Going from SSVGLFVLLCLV to STVGAWGRVGEG, the protein stability index rises from 0.2 ± 0.0056 to 0.45024 ± 0.00039.

Going from SVFFRPVLICCA to SVLAIWLTVTLK, the protein stability index rises from 0.0558 ± 0.0082 to 0.0915 ± 0.023.

SVLVSVVLFVRS and SVSMYPKPHLIC are within error of each other in protein stability index: 0.126 ± 0.032 for the first, 0.119 ± 0.015 for the second.

Same assay, conditions: genetic background: wild type; temperature: 30 C

Going from PSPVRSSYASTL to PSVRCVVACFIN, the protein stability index falls from 0.665 ± 0.02 to 0.172 ± 0.039.

Going from PVGRSVFFVWFL to PVKGTMIKAKNT, the protein stability index falls from 0.367 ± 0.016 to 0.193 ± 0.024.

Going from PVLSLPPLSSPP to PVLYSFSLWIHL, the protein stability index falls from 0.691 ± 0.02 to 0.255 ± 0.02.

PVWLFLVRAIKG and PWLLHTPLSLVF are within error of each other in protein stability index: 0.33 ± 0.029 for the first, 0.349 ± 0.0058 for the second.

QCLSYFFPVPVA and QGRRKEKAVTLN are within error of each other in protein stability index: 0.182 ± 0.02 for the first, 0.193 ± 0.032 for the second.

QKGLFYCVILYC and RDGAHFLLILVC are within error of each other in protein stability index: 0.156 ± 0.032 for the first, 0.125 ± 0.025 for the second.

RFFFSSFPLLIS and RFLVVVRFYWRC are within error of each other in protein stability index: 0.199 ± 0.025 for the first, 0.214 ± 0.035 for the second.

Compared with RGFIYCSFVVRL, RGLLLKILIASG is lower in protein stability index: 0.33 ± 0.021 for the first, 0.213 ± 0.026 for the second.

Compared with RGVGSGGLEGIG, RGVPPPPWTPPP is higher in protein stability index: 0.514 ± 0.021 for the first, 0.661 ± 0.0081 for the second.

Compared with RIWRLLIIIIKK, RKRKKISEIIAI is higher in protein stability index: 0.259 ± 0.016 for the first, 0.572 ± 0.041 for the second.

Going from RLPFPVVLFLLF to RLVMAVRVAAGG, the protein stability index rises from 0.28 ± 0.024 to 0.349 ± 0.015.

RMLSLFFPLRTL and RNWVVDGWRRFP are within error of each other in protein stability index: 0.243 ± 0.048 for the first, 0.192 ± 0.039 for the second.

RPCLSALRFRFF and RPHPLHIPRRLA are within error of each other in protein stability index: 0.162 ± 0.026 for the first, 0.216 ± 0.072 for the second.

Going from RQINEKKKLYMI to RRGLIFFLCCPA, the protein stability index rises from 0.102 ± 0.028 to 0.332 ± 0.039.

First: RRLYERNKNNKQ
Second: RRRRGGQSPALR
The protein stability index of the first is lower: 0.387 ± 0.067 for the first, 0.717 ± 0.03 for the second.

Compared with RRTTIFDTKEPP, RRVFPLIIVLLF is lower in protein stability index: 0.511 ± 0.019 for the first, 0.126 ± 0.022 for the second.

First: RSCKSIRGIFVC
Second: RSFPCITVFIRA
The protein stability index of the first is lower: 0.229 ± 0.02 for the first, 0.323 ± 0.023 for the second.

Compared with RSKWEKLDKIVS, RVCVFVLFGLCF is lower in protein stability index: 0.396 ± 0.047 for the first, 0.315 ± 0.022 for the second.

RWGLCFVHVTMF and RWRLWVGWWVVG are within error of each other in protein stability index: 0.106 ± 0.039 for the first, 0.118 ± 0.0076 for the second.

Going from RYRVRIVVFGLV to SCFCFRVLLCSF, the protein stability index rises from 0.088 ± 0.046 to 0.297 ± 0.019.

SCLFMLFPLVSV and SCLLVVVSTSGN are within error of each other in protein stability index: 0.409 ± 0.033 for the first, 0.4057 ± 0.002 for the second.

First: SFFVCVRVFGCC
Second: SFFWAMSLLCFV
The protein stability index of the first is lower: 0.239 ± 0.018 for the first, 0.414 ± 0.024 for the second.

Compared with SFGLICFLILCG, SFIVGYRWNNRN is higher in protein stability index: 0.205 ± 0.014 for the first, 0.378 ± 0.0046 for the second.

SFVVVFTFFFGC and SGFLRFRGLVCY are within error of each other in protein stability index: 0.258 ± 0.036 for the first, 0.278 ± 0.038 for the second.

Compared with SGFWVSVDVFFV, SGLPLVILFLCL is higher in protein stability index: 0.136 ± 0.026 for the first, 0.436 ± 0.019 for the second.

First: SGRATSSRTSEP
Second: SGWGCRMVVCAG
The protein stability index of the first is higher: 0.6625 ± 0.0048 for the first, 0.197 ± 0.029 for the second.

Compared with SHPAPPSPPPSP, SILFSYFCFFLL is lower in protein stability index: 0.391 ± 0.025 for the first, 0.273 ± 0.028 for the second.

SLCPFLCILCFG and SLCVVIFFSSIT are within error of each other in protein stability index: 0.259 ± 0.021 for the first, 0.266 ± 0.041 for the second.

First: SLPVSPLVRLLA
Second: SLRICACMTVSW
The protein stability index of the first is lower: 0.138 ± 0.02 for the first, 0.353 ± 0.012 for the second.

SLSALPRPPRLL and SPPHSPSALPPP are within error of each other in protein stability index: 0.677 ± 0.023 for the first, 0.669 ± 0.0081 for the second.

Compared with SPWSIHLILLQV, SQCVVYLSVRFS is higher in protein stability index: 0.203 ± 0.029 for the first, 0.353 ± 0.011 for the second.

Going from SQKKKIKKYKET to SREQANTVYRLI, the protein stability index rises from 0.147 ± 0.041 to 0.3 ± 0.0074.

First: SRFFSCCVFPSF
Second: SRKRIVALMLSG
The protein stability index of the first is higher: 0.654 ± 0.0089 for the first, 0.18 ± 0.02 for the second.

First: SRNSSRYLLLVS
Second: SRVGAGVVRGVG
The protein stability index of the first is lower: 0.251 ± 0.027 for the first, 0.493 ± 0.012 for the second.

SRVHHLWAILVP and SSGAVGLVIVVC are within error of each other in protein stability index: 0.228 ± 0.026 for the first, 0.205 ± 0.023 for the second.

Compared with SSGRLRFISRIH, SSVFLGWLIVCY is lower in protein stability index: 0.347 ± 0.018 for the first, 0.168 ± 0.021 for the second.

Going from SSVGLFVLLCLV to STVGAWGRVGEG, the protein stability index rises from 0.205 ± 0.015 to 0.438 ± 0.016.

SVFFRPVLICCA and SVLAIWLTVTLK are within error of each other in protein stability index: 0.0558 ± 0.013 for the first, 0.0938 ± 0.034 for the second.

SVLVSVVLFVRS and SVSMYPKPHLIC are within error of each other in protein stability index: 0.168 ± 0.033 for the first, 0.13 ± 0.017 for the second.
